For assay [1], the target named is T1, Human IL-1RAP, membrane-bound on human cells (HaCaT, dermal fibroblasts, neutrophils, PBMC, whole blood) (human, UniProt Q9NPH3 21-570).
T1 sequence: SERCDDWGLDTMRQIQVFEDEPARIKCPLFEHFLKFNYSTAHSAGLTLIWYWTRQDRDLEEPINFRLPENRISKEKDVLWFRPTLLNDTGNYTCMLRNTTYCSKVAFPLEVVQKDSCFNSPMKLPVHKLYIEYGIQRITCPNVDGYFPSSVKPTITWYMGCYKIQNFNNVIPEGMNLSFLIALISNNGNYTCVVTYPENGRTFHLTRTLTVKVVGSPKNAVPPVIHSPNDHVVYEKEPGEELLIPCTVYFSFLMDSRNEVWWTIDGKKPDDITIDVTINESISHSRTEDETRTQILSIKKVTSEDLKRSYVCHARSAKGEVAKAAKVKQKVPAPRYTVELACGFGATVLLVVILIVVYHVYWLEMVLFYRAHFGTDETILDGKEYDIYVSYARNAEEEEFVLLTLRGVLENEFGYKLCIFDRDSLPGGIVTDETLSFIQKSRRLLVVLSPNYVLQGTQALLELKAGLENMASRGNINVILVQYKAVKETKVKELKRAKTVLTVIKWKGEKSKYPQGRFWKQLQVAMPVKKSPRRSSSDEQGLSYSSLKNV
Briefly: cell-based or functional assay.

Assay [2] concerns the target T2, Recombinant cynomolgus monkey IL-1RAP-ECD(S21-E359)-avi-his protein (cynomolgus monkey, UniProt P59822 21-359 (rhesus entry)).
T2 construct: also called cyno IL-1RAP-ECD-Avi-His; recombinant cynomolgus monkey IL-1RAP-avi-his protein
T2 sequence: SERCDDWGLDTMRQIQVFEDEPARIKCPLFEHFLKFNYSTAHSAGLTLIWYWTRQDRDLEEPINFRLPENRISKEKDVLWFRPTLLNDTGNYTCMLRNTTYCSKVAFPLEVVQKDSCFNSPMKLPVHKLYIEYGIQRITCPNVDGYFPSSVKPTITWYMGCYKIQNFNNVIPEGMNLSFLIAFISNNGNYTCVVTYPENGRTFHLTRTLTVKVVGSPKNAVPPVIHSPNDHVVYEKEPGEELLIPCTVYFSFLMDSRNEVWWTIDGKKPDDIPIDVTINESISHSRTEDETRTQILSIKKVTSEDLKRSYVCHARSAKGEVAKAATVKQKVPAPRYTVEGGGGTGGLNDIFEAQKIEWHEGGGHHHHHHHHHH
Briefly: SPR, IgG1 LALA captured on anti-human IgG Fc CM5 chip, cynomolgus monkey IL-1RAP-avi-his as analyte in a concentration series, 1:1 fit, one representative replicate. The procedure:
Anti-IL-1RAP-C8-RecC-ES IgG1 LALA was immobilized on a Series S CM5 sensor CHIP coupled with anti-human IgG Fc. Human IL-1RAP-avi-his or cynomolgus monkey IL-1RAP-avi-his was injected over immobilized IgG1 LALA in concentration series in HBS-EP+ buffer. One representative replicate for human IL-1RAP and cynomolgus monkey IL-1RAP is presented. Plots are showing data expressed as number of resonance units (abbreviated RU; Y axis) vs. time (s, X axis). Dotted lines represent the measured data while solid lines represent simulated fits. KD: equilibrium dissociation constant; Ka: association constant; Kd: dissociation constant.
Surface plasmon resonance (SPR) was used to measure the binding affinities of the human IgG1 LALA molecules for human and cynomolgus monkey IL-1RAP. Affinities were measured on a BIACORE™ T200 instrument (BIACORE™, GE […]®) at 25° C. and analyzed with the BIACORE™ T200 Evaluation Software (v3.1). Measurements were performed on Series S CM5 sensor chips (BIACORE™ T200, BIACORE™, GE […]®, catalog no. BR100530) coupled with anti-human IgG Fc (BIACORE™, GE […]®, catalog no. BR100839) using a commercial amine coupling kit (BIACORE™, GE […]®, catalog no. BR100050). SPR measurements were performed with recombinant human IL-1RAP-avi-his protein produced in house (SEQ ID NO. 1) or recombinant cynomolgus monkey IL-1RAP-avi-his protein produced in house (SEQ ID NO. 2). The affinities to human and cynomolgus monkey IL-1RAP were assessed by immobilizing anti-IL-1RAP IgG1 LALA molecules and using IL-1RAP proteins as analyte. Around 150 RU of human IgG1 LALA were captured on fc2 of a Series S CM5 sensor chip coupled with anti-human IgG Fc. Recombinant human IL-1RAP-avi-his protein or recombinant cynomolgus monkey IL-1RAP-avi-his protein was injected in multi cycle kinetic at different concentrations ranging from 0.14 to 100 nM, in HBS-EP+ buffer (BIACORE™, GE […]®, catalog no. BR100669) at a flow rate of 30 μl/min for 3 min on fc1 and fc2 (fc1 being used as reference). Dissociation was monitored for 12 min.

B1: Anti-IL-1RAP-C8-RecC-ES-IgG1LALA (antibody, V domains shown)
VH: QVQLVQSGAEVKKPGSSVKVSCKASGSPAEPYAIQWVRQAPGQGLEWMGYIIPSLGGYDYAQKFQGRVTITADESTSTAYMELSSLRSEDTAVYYCARGQTLYESGRQFDIWGQGTLVTVSS
VL: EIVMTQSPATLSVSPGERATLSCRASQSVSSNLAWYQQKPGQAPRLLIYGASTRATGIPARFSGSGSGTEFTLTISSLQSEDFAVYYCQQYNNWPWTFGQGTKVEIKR
notes: also called ISB 880-C8-recC-ES
By Kd is commonly meant the concentration at which binding is half-saturated. By koff is commonly meant a measure of how fast the partners let go of each other. The term kon denotes the rate constant with which the complex forms. Consider B1, for which, in assay [1], the “human whole blood, IL-1alpha stimulation, IL-6 release, mean EC50 of inhibition” value was found to be 9.5 nM; the “human whole blood, IL-1alpha stimulation, IL-8 release, mean EC50 of inhibition” value was determined as 14.2 nM; the “human whole blood, IL-1alpha stimulation, MCP-1 release, mean EC50 of inhibition” value is 11.1 nM; the “human whole blood, IL-1alpha stimulation, MIP-1alpha release, mean EC50 of inhibition” value came out at 15 nM. Also, in assay [1], the “human whole blood, IL-1alpha stimulation, MIP-1beta release, mean EC50 of inhibition” value amounted to 89 nM; the “human whole blood, IL-1beta stimulation, IL-6 release, mean EC50 of inhibition” value worked out at 8.8 nM; the “human whole blood, IL-1beta stimulation, IL-8 release, mean EC50 of inhibition” value was 24.7 nM; the “human whole blood, IL-1beta stimulation, MCP-1 release, mean EC50 of inhibition” value worked out at 17.7 nM. In assay [1], the “human whole blood, IL-1beta stimulation, MIP-1alpha release, mean EC50 of inhibition” value is 16 nM and the “human whole blood, IL-1beta stimulation, MIP-1beta release, mean EC50 of inhibition” value was 53.3 nM. Besides, in assay [2], the Kd is 0.307 nM, the koff was found to be 0.000196 s⁻¹ and the kon is 638000 M⁻¹ s⁻¹.

The values are drawn from patent US20240327530A1 (ICHNOS SCIENCES, published 2024).
